This note sets out measurements from patent publication US20260242478A1 (published 2026).

Where no end group is shown, it is not given here.

B1: Phage-3377 (peptide)
peptide: HDLRCVPEWMCYGL
B2: Phage-3373 (peptide)
peptide: GHPICVPSWMCEGF
B3: Phage-3375 (peptide)
peptide: QEIYCVPEWMCSWF
B4: Phage-3372 (peptide)
peptide: DFAMCRPAWMCGGF
modifications: cysteine pairing not given here; also: fused to pIII of bacteriophage
B5: Phage-3371 (peptide)
peptide: PHAICKPAWMCVGL
B6: Phage-3369 (peptide)
peptide: HTPICVPVWMCAGF
modifications: cysteine pairing not given here; also: fused to pIII of bacteriophage
B7: Phage-3370 (peptide)
peptide: LSIKCVPDWMCTGF
B8: Phage-3374 (peptide)
peptide: IDKMCVPSWMCWGF
B9: Phage-3376 (peptide)
peptide: EYIRCVPSWMCLDL
B10: Phage-3383 (peptide)
peptide: NGALCKPVWMCQGF
B11: Phage-3379 (peptide)
peptide: QVPMCKPMWMCAGF
modifications: cysteine pairing not given here; also: fused to pIII of bacteriophage
B12: Phage-3380 (peptide)
peptide: AEVRCVPQWMCFGL
B13: Phage-3388 (peptide)
peptide: MQMMCKPDWMCEGF
B14: Phage-3378 (peptide)
peptide: DVRLCRPSWMCSGF
B15: Phage-3381 (peptide)
peptide: EMRYCVPRWMCEGF
B16: Phage-3384 (peptide)
peptide: LEVHCRPSWMCVGF
B17: Phage-3387 (peptide)
peptide: FSVRCVPEWMCAGF
modifications: cysteine pairing not given here; also: fused to pIII of bacteriophage
B18: Phage-3390 (peptide)
peptide: QGTLCVPSWMCSGF
B19: Phage-3386 (peptide)
peptide: FTALCKPMWMCRGF
B20: Phage-3382 (peptide)
peptide: VEPLCRPFWMCVGF
B21: Phage-3391 (peptide)
peptide: IEAVCKPSWMCAGF
modifications: cysteine pairing not given here; also: fused to pIII of bacteriophage
B22: Phage-3385 (peptide)
peptide: ILPQCVPSWMCEGF
B23: Phage-3389 (peptide)
peptide: IGAMCEPKWMCFGF
modifications: cysteine pairing not given here; also: fused to pIII of bacteriophage
B24: Phage-3406 (peptide)
peptide: AQGVCIPQWMCDGF
modifications: cysteine pairing not given here; also: fused to pIII of bacteriophage
B25: Phage-3408 (peptide)
peptide: GDHYCKPDWMCSGF
B26: Phage-3409 (peptide)
peptide: DTFMCRPSWMCNGF
B27: Phage-3407 (peptide)
peptide: SEILCRPAWMCTGF
B28: Phage-3411 (peptide)
peptide: SLAQCVPEWMCFGF
B29: Phage-3410 (peptide)
peptide: VEPLCRPMWMCEGI

The target of the first assay is T1, PSMA Fab (006 PSMA Fab) (biotinylated (site not stated)).
T1 construct: In the clonal phage ELISA the biotinylated PSMA Fab was captured on neutravidin coated plates; also called Anti-PSMA Fab
Briefly: clonal phage ELISA on biotinylated PSMA Fab captured on neutravidin, anti-M13 HRP detection, no PSMA. A general note: In an ELISA, binding on a coated surface is turned into a signal by an enzyme label.
Turning to B1, the “Phage binding ELISA signal, Anti-PSMA Fab” value was found to be 1.81.
For the molecule B2, the “Phage binding ELISA signal, Anti-PSMA Fab” value was determined as 1.81.
As for B3, the “Phage binding ELISA signal, Anti-PSMA Fab” value amounted to 1.81.
Take B4: the “Phage binding ELISA signal, Anti-PSMA Fab” value was 1.81.
Same read-out and setting: in the case of B5 it was 1.81.
B6: the “Phage binding ELISA signal, Anti-PSMA Fab” value was 1.82.
Turning to B7, the “Phage binding ELISA signal, Anti-PSMA Fab” value is 1.81.
Turning to B8, the “Phage binding ELISA signal, Anti-PSMA Fab” value was found to be 1.81.
For the molecule B9, the “Phage binding ELISA signal, Anti-PSMA Fab” value is 1.81.

The next assay deals with T2, PSMA Fab (biotinylated (site not stated)).
T2 construct: Biotinylated PSMA Fab captured on neutravidin coated plates in the phage ELISA; also called anti-PSMA Fab; 006 PSMA Fab
Kind of assay: clonal phage ELISA on biotinylated PSMA Fab captured on neutravidin plates, anti-M13-HRP detection.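 Note: crude clonal phage supernatants added to wells preincubated with PSMA antigen or with blocking buffer only (no wash between), briefly incubated, then washed before detecting bound phage.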
For the molecule B10, the “Phage binding ELISA signal, Anti-PSMA Fab” value was found to be 1.81.
On to B11, for which the “Phage binding ELISA signal, Anti-PSMA Fab” value is 1.81.
Consider B12, for which the “Phage binding ELISA signal, Anti-PSMA Fab” value stood at 1.81.
As to B13, the “Phage binding ELISA signal, Anti-PSMA Fab” value worked out at 1.8.
For the molecule B14, the “Phage binding ELISA signal, Anti-PSMA Fab” value is 1.81.
B15: the “Phage binding ELISA signal, Anti-PSMA Fab” value is 1.81.
For the molecule B16, the “Phage binding ELISA signal, Anti-PSMA Fab” value was determined as 1.81.
Turning to B17, the “Phage binding ELISA signal, Anti-PSMA Fab” value stood at 1.8.
For the molecule B18, the “Phage binding ELISA signal, Anti-PSMA Fab” value is 1.8.
Regarding B19, the “Phage binding ELISA signal, Anti-PSMA Fab” value turned out to be 1.81.
Regarding B20, the “Phage binding ELISA signal, Anti-PSMA Fab” value was determined as 1.81.
On to B21, for which the “Phage binding ELISA signal, Anti-PSMA Fab” value was 1.8.
Regarding B22, the “Phage binding ELISA signal, Anti-PSMA Fab” value is 1.81.
On the same count and under the same terms, in the case of B23 it was 1.8.

For another assay, the target named is T2, PSMA Fab. Briefly: clonal phage ELISA on captured PSMA Fab pre-incubated with PSMA antigen as competitor, anti-M13-HRP detection.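 Note: wells blocked with buffer plus PSMA antigen before phage addition, with blocking buffer alone as the no-competitor control, bound phage detected after washing.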
Method: (§1) Clonal phage were harvested as crude supernatants and screened via standard ELISAs. […] Prior to the addition of clonal phage. wells were incubated with blocking buffer and PSMA antigen or blocking buffer alone. Without washing or aspirating, clonal phage supernatants were then added to the wells and incubated for a short time. Wells were then washed followed by detection of bound phage using a horse radish conjugated anti-M13 antibody.
As for B10, the “Phage binding ELISA signal, Anti-PSMA Fab with PSMA antigen” value was 0.0702.
Turning to B11, the “Phage binding ELISA signal, Anti-PSMA Fab with PSMA antigen” value amounted to 0.0921.
For the molecule B12, the “Phage binding ELISA signal, Anti-PSMA Fab with PSMA antigen” value is 0.0952.
B13: the “Phage binding ELISA signal, Anti-PSMA Fab with PSMA antigen” value was found to be 0.0755.
Consider B14, for which the “Phage binding ELISA signal, Anti-PSMA Fab with PSMA antigen” value is 0.0682.
For the molecule B15, the “Phage binding ELISA signal, Anti-PSMA Fab with PSMA antigen” value amounted to 0.095.
Take B16: the “Phage binding ELISA signal, Anti-PSMA Fab with PSMA antigen” value turned out to be 0.062.
Consider B17, for which the “Phage binding ELISA signal, Anti-PSMA Fab with PSMA antigen” value is 0.0701.
Still for that read-out and setting: in the case of B18 it was 0.0523; in that of B19, 0.0718.
On to B20, for which the “Phage binding ELISA signal, Anti-PSMA Fab with PSMA antigen” value was 0.127.
Turning to B21, the “Phage binding ELISA signal, Anti-PSMA Fab with PSMA antigen” value was 0.0703.
Consider B22, for which the “Phage binding ELISA signal, Anti-PSMA Fab with PSMA antigen” value was 0.106.
Regarding B23, the “Phage binding ELISA signal, Anti-PSMA Fab with PSMA antigen” value is 0.118.

The target in the next assay is T3, PSMA Fab.
T3 construct: also called Anti-PSMA Fab; 006 PSMA Fab
Briefly: clonal phage ELISA; biotinylated PSMA Fab on neutravidin plate, blocking buffer alone; anti-M13 HRP detection.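 Note: crude clonal phage supernatants added without washing to wells pretreated with blocking buffer with or without PSMA antigen, short incubation, then washed before detecting bound phage.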
Method: as §1
For the molecule B24, the “Phage binding ELISA signal, Anti-PSMA Fab” value was determined as 1.79.
With B25, the “Phage binding ELISA signal, Anti-PSMA Fab” value turned out to be 1.79.
B26: the “Phage binding ELISA signal, Anti-PSMA Fab” value was 1.79.
Still for that read-out and setting: in the case of B27 it was 1.79; in that of B28, 1.79; in that of B29, 1.79.

The target in a further assay is T1, PSMA Fab (006 PSMA Fab). Briefly: clonal phage ELISA on captured PSMA Fab pre-incubated with PSMA antigen as competitor.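 Note: crude clonal phage supernatants added to wells without washing away the PSMA competitor, bound phage detected by HRP-conjugated anti-M13 antibody, reference wells received blocking buffer only.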
Method: as §1
On to B1, for which the “Phage binding ELISA signal, Anti-PSMA Fab with PSMA antigen” value was 0.0734.
Still for that read-out and setting: in the case of B2 it was 0.0862; in that of B3, 0.0642.
For the molecule B4, the “Phage binding ELISA signal, Anti-PSMA Fab with PSMA antigen” value turned out to be 0.0683.
As for B5, the “Phage binding ELISA signal, Anti-PSMA Fab with PSMA antigen” value was 0.0913.
For B6, the “Phage binding ELISA signal, Anti-PSMA Fab with PSMA antigen” value is 0.0746.
The same measure, in the same setting: in the case of B7 it was 0.09.
Regarding B8, the “Phage binding ELISA signal, Anti-PSMA Fab with PSMA antigen” value was found to be 0.0876.
Still for that read-out and setting: in the case of B9 it was 0.0615.

In the next assay the target is T3, PSMA Fab. Briefly: clonal phage ELISA; biotinylated PSMA Fab on neutravidin plate, pre-incubated with PSMA antigen as competitor; anti-M13 HRP detection.
Method: as §1
On to B24, for which the “Phage binding ELISA signal, Anti-PSMA Fab with PSMA antigen” value is 0.0715.
Consider B25, for which the “Phage binding ELISA signal, Anti-PSMA Fab with PSMA antigen” value stood at 0.071.
In the case of B26, the “Phage binding ELISA signal, Anti-PSMA Fab with PSMA antigen” value is 0.072.
Consider B27, for which the “Phage binding ELISA signal, Anti-PSMA Fab with PSMA antigen” value was 0.104.
In the case of B28, the “Phage binding ELISA signal, Anti-PSMA Fab with PSMA antigen” value came out at 0.113.
B29: the “Phage binding ELISA signal, Anti-PSMA Fab with PSMA antigen” value was found to be 0.122.
